Results reported in paper PMC4598862, “Proteasome Activation is Mediated via a Functional Switch of the Rpt6 C-terminal Tail Following Chaperone-dependent Assembly” (Scientific Reports, 2015).
One block for each binder: values may come before it.

Tests used:
α3-T81C-HA6 = target: T1, α3-T81C-HA6 (S. cerevisiae, UniProt P23638 1-258, T81C); test: cross-linking; proteasomes immunoprecipitated from yeast lysate on HA-agarose via the 6xHA tag of the α subunit, 1 mM ATP; engineered cysteine pair cross-linked with 0.1 mM BMOE, 1 h at 4 °C; SDS-PAGE, immunoblot for the Rpt protein and HA; wild-type and nas6Δ cells (no influence of Nas6); Rpt3-α2 also in rpt6-Δ1 cells (decreased); settings: partners not purified
T1 construct: CP subunit α3, entire open reading frame with the cysteine substitution; also called α3^HA; source: expressed from the chromosomal locus in S. cerevisiae, immunoprecipitated from lysate on HA-agarose beads; not shown: 6xHA, C-terminal, kept
T1 sequence (looked up): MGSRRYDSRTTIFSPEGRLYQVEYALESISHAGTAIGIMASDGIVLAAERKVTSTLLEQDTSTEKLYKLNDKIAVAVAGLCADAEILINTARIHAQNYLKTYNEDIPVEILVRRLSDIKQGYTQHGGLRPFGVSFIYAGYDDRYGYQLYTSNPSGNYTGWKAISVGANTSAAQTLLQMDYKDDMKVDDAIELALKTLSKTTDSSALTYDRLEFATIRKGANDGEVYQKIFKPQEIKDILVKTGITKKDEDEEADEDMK

[1] = target: α2-A79C-HA6 (S. cerevisiae) (UniProt P23639); test: cross-linking; as a8 but with 2 mM ADP (0.5 mM ADP in the washes)

percent decrease of the crosslink ratio (ATP) relative to the Rpt3-α2^HA ratio (ATP) (α3-T81C-HA6): 43.6%
B1: Rpt6-K405C (natural protein, S. cerevisiae, UniProt Q01939 1-405, looked up)
chain: MTAAVTSSNIVLETHESGIKPYFEQKIQETELKIRSKTENVRRLEAQRNALNDKVRFIKDELRLLQEPGSYVGEVIKIVSDKKVLVKVQPEGKYIVDVAKDINVKDLKASQRVCLRSDSYMLHKVLENKADPLVSLMMVEKVPDSTYDMVGGLTKQIKEIKEVIELPVKHPELFESLGIAQPKGVILYGPPGTGKTLLARAVAHHTDCKFIRVSGAELVQKYIGEGSRMVRELFVMAREHAPSIIFMDEIDSIGSTRVEGSGGGDSEVQRTMLELLNQLDGFETSKNIKIIMATNRLDILDPALLRPGRIDRKIEFPPPSVAARAEILRIHSRKMNLTRGINLRKVAEKMNGCSGADVKGVCTEAGMYALRERRIHVTQEDFELAVGKVMNKNQETAISVAKLFC
notes: RP base ATPase Rpt6; K405 is the last residue of Rpt6; source: expressed from the chromosomal locus in S. cerevisiae, in proteasomes immunoprecipitated from lysate via α3-HA6

percent decrease of crosslinking under ADP relative to ATP [1]: 90%
B2: Rpt3-K428C (natural protein)
chain: MEELGIVTPVEKAVEEKPAVKSYASLLAQLNGTVNNNSALSNVNSDIYFKLKKLEKEYELLTLQEDYIKDEQRHLKRELKRAQEEVKRIQSVPLVIGQFLEPIDQNTGIVSSTTGMSYVVRILSTLDRELLKPSMSVALHRHSNALVDILPPDSDSSISVMGENEKPDVTYADVGGLDMQKQEIREAVELPLVQADLYEQIGIDPPRGVLLYGPPGTGKTMLVKAVANSTKAAFIRVNGSEFVHKYLGEGPRMVRDVFRLARENAPSIIFIDEVDSIATKRFDAQTGSDREVQRILIELLTQMDGFDQSTNVKVIMATNRADTLDPALLRPGRLDRKIEFPSLRDRRERRLIFGTIASKMSLAPEADLDSLIIRNDSLSGAVIAAIMQEAGLRAVRKNRYVILQSDLEEAYATQVKTDNTVDKFDFYC
